In patent publication EP4772538A1 (Beijing Wisdomab Biotechnology Co., Ltd, dated 2026):

What was measured:
[1] = target: T1, HLA-A02/MAGE-A4 complex on the cell surface (MAGE-A4230-239 (…) presented by HLA-A02) (human); assay: cell-based or functional assay
[2] = target: T2, HLA-A02 complex of … (MHC-P1-His), disulfide trap single-chain trimer (human); assay: SPR, Biacore T200, method of Section 3.1; affinity for MHC-P1
T2 construct: also called recombinant protein MHC-P1

[3] = target: T1, HLA-A02/MAGE-A4 complex on the cell …; assay: cell-based or functional assay; remark: listed apart in the source
[4] = target: T1, HLA-A02/MAGE-A4 complex on the cell …; assay: cell-based or functional assay; remark: listed apart in the source
[5] = target: T1, HLA-A02/MAGE-A4 complex on the cell …; assay: cell-based or functional assay; remark: listed apart in the source
[6] = target: T2, HLA-A02 complex of … (MHC-P1-His), …; assay: SPR, Biacore T200; antibody captured by anti-human IgG (Fc), MHC-P1-His injected, 25°C, 1:1 model
[7] = target: T3, HLA-A02 complex of alanine-scanning mutant peptide E7A of MAGE-A4230-239 on pulsed T2 cells (human); assay: flow cytometry on peptide-pulsed T2 cells, N18D10-Fc at 10 nM, anti-human IgG-FITC
T3 construct: whole, on cells

[8] = target: T4, HLA-A02 complex of alanine-scanning mutant peptide G5A of MAGE-A4230-239 on pulsed T2 cells (human); assay: as above
T4 construct: whole, on cells

[9] = target: T5, HLA-A02 complex of alanine-scanning mutant peptide R6A of MAGE-A4230-239 on pulsed T2 cells (human); assay: as above
T5 construct: whole, on cells

[10] = target: T1, HLA-A02/MAGE-A4 complex on the cell …; assay: as above
[11] = target: T6, HLA-A02 complex of alanine-scanning mutant peptide D4A of MAGE-A4230-239 on pulsed T2 cells (human); assay: as above
T6 construct: whole, on cells

[12] = target: T7, HLA-A02 complex of alanine-scanning mutant peptide T9A of MAGE-A4230-239 on pulsed T2 cells (human); assay: as above
T7 construct: whole, on cells

[13] = target: T8, HLA-A02 complex of alanine-scanning mutant peptide V10A of MAGE-A4230-239 on pulsed T2 cells (human); assay: as above
T8 construct: whole, on cells

[14] = target: T9, HLA-A02 complex of alanine-scanning mutant peptide H8A of MAGE-A4230-239 on pulsed T2 cells (human); assay: as above
T9 construct: whole, on cells

[15] = target: T10, HLA-A02 complex of alanine-scanning mutant peptide Y3A of MAGE-A4230-239 on pulsed T2 cells (human); assay: as above
T10 construct: whole, on cells

[16] = target: T11, HLA-A02 complex of alanine-scanning mutant peptide V2A of MAGE-A4230-239 on pulsed T2 cells (human); assay: as above
T11 construct: whole, on cells

[17] = target: T2, HLA-A02 complex of … (MHC-P1-His), …; assay: SPR, Biacore T200, method of Section 3.1; antibody captured, MHC-P1-His injected

B1: TCRm x CD3 bispecific antibody 2N18D10-h16+IMCR (bispecific antibody)
chain 1: QVQLVESGGGLVKPGGSLRLSCAVSGFTFDDSDMGWYRQAPGNECELVSTITTDGSTYYADSVKGRFTISQDNAKTSAYLQMNSLRAEDTAVYYCAADLPILRPTPCGDSVLYNYWGQGTTVTVSSGGGGSGGGGSGGGGSQVQLVESGGGLVKPGGSLRLSCAVSGFTFDDSDMGWYRQAPGNECELVSTITTDGSTYYADSVKGRFTISQDNAKTSAYLQMNSLRAEDTAVYYCAADLPILRPTPCGDSVLYNYWGQGTTVTVSSASERKSSVECPPCPAPEFEGGPSVFLFPPKPKDTLMISRTPEVTCVVVDVSQEDPEVQFNWYVDGVEVHNAKTKPREEQYNSTYRVVSVLTVLHQDWLNGKEYKCKVSNKALPASIEKTISKAKGQPREPQVCTLPPSQEEMTKNQVSLSCAVKGFYPSDIAVEWESNGQPENNYKTTPPVLDSDGSFFLVSKLTVDKSRWQEGNVFSCSVMHEALHNHYTQKSLSLSPGK
chain 2: not shown
notes: also called 22N18D10-h16+IMCR
- EC50 of killing of A375 cells (HLA-A02+/MAGE-A4+) via PBMCs (LDH release) [1]: 0.0761 nM
- Kd [2]: 0.43 nM
- koff [2]: 7.83e-05 s⁻¹
- kon [2]: 182000 M⁻¹ s⁻¹
- EC50 of activation of Jurkat-Dual cells via antigen peptide-pulsed T2 cells (QUANTI-Luc) [3]: 0.0143 nM
- EC50 of activation of Jurkat-Dual cells via HLA-A02+/MAGE-A4+ tumor cells A375 (QUANTI-Luc) [4]: 0.145 nM
- EC50 of killing of antigen peptide-pulsed T2 cells via PBMCs (LDH release) [5]: 0.00256 nM

B2: anti-HLA-A02/MAGE-A4 complex and anti-CD3 control bispecific antibody 057G03 (bispecific antibody)
heavy 1: AQLVESGGGLVQPGGSLRLSCAASAYFSFKAMSWVRQAPGKGLEWVGSISPSGGSTYYNDNVLGRFTISRDNSKNTLYLQMNSLRAEDTAVYYCAKDVGFFDEWGQGTLVTVSSASTKGPSVFPLAPSSKSTSGGTAALGCLVEDYFPEPVTVSWNSGALTSGVHTFPAVLQSSGLYSLSSVVTVPSSSLGTQTYICNVNHKPSNTKVDEKVEPKSCDGGGGSGGGGSDIQMTQSPSSLSASVGDRVTITCRASQDIRNYLNWYQQKPGKAPKLLIYYTSRLESGVPSRFSGSGSGTDYTLTISSLQPEDFATYYCQQGNTLPWTFGQGTKVEIKSSASTKGPSVFPLAPSSKSTSGGTAALGCLVKDYFPEPVTVSWNSGALTSGVHTFPAVLQSSGLYSLSSVVTVPSSSLGTQTYICNVNHKPSNTKVDKRVERKSCVECPPCPAPEFEGGPSVFLFPPKPKDTLMISRTPEVTCVVVDVSHEDPEVKFNWYVDGVEVHNAKTKPREEQYNSTYRVVSVLTVLHQDWLNGKEYKCKVSNKALPASIEKTISKAKGQPREPQVYTLPPCREEMTKNQVSLWCLVKGFYPSDIAVEWESNGQPENNYKTTPPVLDSDGSFFLYSKLTVDKSRWQQGNVFSCSVMHEALHNHYTQKSLSLSPGK
heavy 2: AQLVESGGGLVQPGGSLRLSCAASAYFSFKAMSWVRQAPGKGLEWVGSISPSGGSTYYNDNVLGRFTISRDNSKNTLYLQMNSLRAEDTAVYYCAKDVGFFDEWGQGTLVTVSSASTKGPSVFPLAPSSKSTSGGTAALGCLVEDYFPEPVTVSWNSGALTSGVHTFPAVLQSSGLYSLSSVVTVPSSSLGTQTYICNVNHKPSNTKVDEKVERKSCVECPPCPAPEFEGGPSVFLFPPKPKDTLMISRTPEVTCVVVDVSQEDPEVQFNWYVDGVEVHNAKTKPREEQYNSTYRVVSVLTVLHQDWLNGKEYKCKVSNKALPASIEKTISKAKGQPREPQVCTLPPSQEEMTKNQVSLSCAVKGFYPSDIAVEWESNGQPENNYKTTPPVLDSDGSFFLVSKLTVDKSRWQEGNVFSCSVMHEALHNHYTQKSLSLSPGK
light: DIQMTQSPSSLSASVGDRVTITCRASQSISSYLAWYQQKPGKAPKLLIYDASIRDIGVPSRFSGSGSGTDFTLTISSLQPEDFATYYCQQYSSYPYTFGQGTKLEIKRTVAAPSVFIFPPSDRKLKSGTASVVCLLNNFYPREAKVQWKVDNALQSGNSQESVTEQDSKDSTYSLSSTLTLSKADYEKHKVYACEVTHQGLSSPVTKSFNRGEC
chain: EVQLVESGGGLVQPGGSLRLSCAASGYSFTGYTMNWVRQAPGKGLEWVALINPYKGVSTYNQKFKDRFTISVDKSKNTAYLQMNSLRAEDTAVYYCARSGYYGDSDWYFDVWGQGTLVTVSSASVAAPSVFIFPPSDEQLKSGTASVVCLLNNFYPREAKVQWKVDNALQSGNSQESVTEQDSKDSTYSLSSTLTLSKADYEKHKVYACEVTHQGLSSPVTKSFNRGEC
notes: also called 057D03 (variable regions)
- EC50 of killing of A375 cells (HLA-A02+/MAGE-A4+) via PBMCs (LDH release) [1]: 5.52 nM
- Kd [2]: 33 nM
- koff [2]: 0.0167 s⁻¹
- kon [2]: 507000 M⁻¹ s⁻¹
- EC50 of activation of Jurkat-Dual cells via antigen peptide-pulsed T2 cells (QUANTI-Luc) [3]: 0.175 nM
- EC50 of activation of Jurkat-Dual cells via HLA-A02+/MAGE-A4+ tumor cells A375 (QUANTI-Luc) [4]: 0.749 nM
- EC50 of killing of antigen peptide-pulsed T2 cells via PBMCs (LDH release) [5]: 0.00453 nM

B3: TCRm x CD3 bispecific antibody 2N18D10+IMCR (bispecific antibody)
chain 1: EVQLVESGGGSVQTGETLRLSCTVSGFTFDDSDMGWYRQAPGNECELVSTITTDGSTYYADSVKGRFTISQDNAKTTAYLQMDSLKPEDTAVYYCAADLPILRPTPCGDSVLYNYWGQGTQVTVSSGGGGSGGGGSGGGGSEVQLVESGGGSVQTGETLRLSCTVSGFTFDDSDMGWYRQAPGNECELVSTITTDGSTYYADSVKGRFTISQDNAKTTAYLQMDSLKPEDTAVYYCAADLPILRPTPCGDSVLYNYWGQGTQVTVSSASERKSSVECPPCPAPEFEGGPSVFLFPPKPKDTLMISRTPEVTCVVVDVSQEDPEVQFNWYVDGVEVHNAKTKPREEQYNSTYRVVSVLTVLHQDWLNGKEYKCKVSNKALPASIEKTISKAKGQPREPQVCTLPPSQEEMTKNQVSLSCAVKGFYPSDIAVEWESNGQPENNYKTTPPVLDSDGSFFLVSKLTVDKSRWQEGNVFSCSVMHEALHNHYTQKSLSLSPGK
chain 2: not shown
- EC50 of killing of A375 cells (HLA-A02+/MAGE-A4+) via PBMCs (LDH release) [1]: 0.0498 nM
- Kd [2]: 0.388 nM
- koff [2]: 7.61e-05 s⁻¹
- kon [2]: 196000 M⁻¹ s⁻¹
- EC50 of activation of Jurkat-Dual cells via antigen peptide-pulsed T2 cells (QUANTI-Luc) [3]: 0.0145 nM
- EC50 of activation of Jurkat-Dual cells via HLA-A02+/MAGE-A4+ tumor cells A375 (QUANTI-Luc) [4]: 0.189 nM
- EC50 of killing of antigen peptide-pulsed T2 cells via PBMCs (LDH release) [5]: 0.00236 nM

B4: anti-HLA-A02/MAGE-A4 complex TCRm antibody N18D10-Fc (Fc fusion)
chain: EVQLVESGGGSVQTGETLRLSCTVSGFTFDDSDMGWYRQAPGNECELVSTITTDGSTYYADSVKGRFTISQDNAKTTAYLQMDSLKPEDTAVYYCAADLPILRPTPCGDSVLYNYWGQGTQVTVSS
notes: Camel VHH fused to the Fc region of human IgG1; not shown: Fc region of human IgG1
- Kd [6]: 0.388 nM
- koff [6]: 7.18e-05 s⁻¹
- kon [6]: 185000 M⁻¹ s⁻¹
- binding relative to the original peptide [7]: 27.4%
- binding relative to the original peptide [8]: -1.02%
- binding relative to the original peptide [9]: -0.56%
- binding relative to the original peptide [10]: 100%
- binding relative to the original peptide [11]: 18.4%
- binding relative to the original peptide [12]: 33.6%
- binding relative to the original peptide [13]: 0.35%
- binding relative to the original peptide [14]: -0.13%
- binding relative to the original peptide [15]: -0.12%
- binding relative to the original peptide [16]: 41.1%

B5: humanized anti-HLA-A02/MAGE-A4 complex TCRm antibody N18D10-h16-Fc (Fc fusion)
chain: QVQLVESGGGLVKPGGSLRLSCAVSGFTFDDSDMGWYRQAPGNECELVSTITTDGSTYYADSVKGRFTISQDNAKTSAYLQMNSLRAEDTAVYYCAADLPILRPTPCGDSVLYNYWGQGTTVTVSS
notes: Humanized VHH fused to the Fc region of human IgG1; not shown: Fc region of human IgG1
- Kd [17]: 0.467 nM
- koff [17]: 7.61e-05 s⁻¹
- kon [17]: 163000 M⁻¹ s⁻¹
